Assay [1] deals with MPER-GlpF fusion protein (E. coli (GlpF); HIV-1 (gp41 MPER epitope)). The assay is described as follows: size exclusion chromatography, complex against GlpF alone. (In gel filtration, larger molecules generally elute earlier.)
The target of assay [2] is MPER-AdiC fusion protein (Salmonella enterica (AdiC); HIV-1 (gp41 MPER epitope)) (UniProt P60065). The assay is described as follows: gel filtration chromatography, complex against AdiC alone.
For assay [3], the target named is MPER-Fluc-Bpe fusion protein (Bordetella pertussis (Fluc-Bpe); HIV-1 (gp41 MPER epitope)). The assay is described as follows: gel filtration chromatography, complex against fusion protein alone.
Assay [4] deals with MPER-AdiC fusion protein (Salmonella enterica (AdiC); HIV-1 (gp41 MPER epitope)) (UniProt P60065).
Assay [5] addresses MPER-Fluc-Bpe fusion protein (Bordetella pertussis (Fluc-Bpe); HIV-1 (gp41 MPER epitope)). Put plainly: negative stain EM 2-D class averages, 1 dimer:0.3 Fab molar ratio.

With 10E8v4 Fab fragment, the elution volume shift in assay [1] worked out at 1 mL; in assay [2], 0.5 mL. In addition, the shift in the retention time in assay [3] turned out to be 2 mL. The same substance gave a stoichiometry (Fab per AdiC dimer) (Fab per AdiC dimer) in assay [4] of 1.
As to VRC42 Fab fragment, the percent of total particles in the doubly-occupied class in assay [5] amounted to 2.5%.

These data come from patent US20230174629A1.
